Reference: patent publication US20230192896A1 (BIOVERATIV THERAPEUTICS, published 2023)

target: T1, non-activatable Factor X (FXn) (Homo sapiens (Human), UniProt P00742 41-488, single biotin on the C-terminal BioTag); assay: BLI; class meaning: paragraph 285
T1 construct: also called BIIB-FX-015

| binding result | Binder |
| --- | --- |
| binds | BIIB-12-899 (antibody, V domains shown, IgG) VH: QVQLVQSGAEVKKPGASVKVSCKASGYTFTSYYMHWVRQAPGQGLEWMGIINPSGGSTSYAQKFQGRVTMTRDTSTSTVYMELSSLRSEDTAVYYCARGPRTSSPLYFDLWGRGTLVTVSS VL: not shown |
| binds | BIIB-12-900 (antibody, V domains shown, IgG) VH: QVQLVQSGAEVKKPGASVKVSCKASGYTFTSYYMHWVRQAPGQGLEWMGIINPGGGSTSYAQKFQGRVTMTRDTSTSTVYMELSSLRSEDTAVYYCARSGGMYDRELGMDVWGQGTTVTVSS VL: not shown |
| binds | BIIB-12-901 (antibody, V domains shown, IgG) VH: QVQLVQSGAEVKKPGASVKVSCKASGYTFTSYYMSWVRQAPGQGLEWMGIINPSGGSTSYAQKFQGRVTMTRDTSTSTVYMELSSLRSEDTAVYYCARSRPRRPSPYGMDVWGQGTTVTVSS VL: EIVLTQSPATLSLSPGERATLSCRASQSVSSYLAWYQQKPGQAPRLLIYDASNRATGIPARFSGSGSGTDFTLTISSLEPEDFAVYYCQQSANFPFTFGGGTKVEIK |
| binds | BIIB-12-905 (antibody, V domains shown, IgG) VH: QVQLVESGGGVVQPGRSLRLSCAASGFTFSSYGMHWVRQAPGKGLEWVAVISYDGSNKYYADSVKGRFTISRDNSKNTLYLQMNSLRAEDTAVYYCAKGGTYLDTWGQGTLVTVSS VL: EIVLTQSPGTLSLSPGERATLSCRASQSVRSSYLAWYQQKPGQAPRLLIYGASSRATGIPDRFSGSGSGTDFTLTISRLEPEDFAVYYCQQYGRFPPTFGGGTKVEIK |
| binds | BIIB-12-1294 (antibody, V domains shown, IgG) VH: QVQLVQSGAEVKKPGASVKVSCKASGYTFTSYYMHWVRQAPGQGLEWMGIINPSGGSTSYAQKFQGRVTMTRDTSTSTVYMELSSLRSEDTAVYYCARGTRSSRDMDVWGQGTTVTVSS VL: DIQMTQSPSTLSASVGDRVTITCRASQSISSWLAWYQQKPGKAPKLLIYKASSLESGVPSRFSGSGSGTEFTLTISSLQPDDFATYYCQQVNTFPFTFGGGTKVEIK |
| binds | BIIB-12-903 (antibody, V domains shown, IgG) VH: QVQLVQSGAEVKKPGASVKVSCKASGYTFTSYYMHWVRQAPGQGLEWMGIINPSGGSTSYAQKFQGRVTMTRDTSTSTVYMELSSLRSEDTAVYYCARDLGYTAGAFGYWGQGTLVTVSS VL: EIVLTQSPATLSLSPGERATLSCRASQSVSSYLAWYQQKPGQAPRLLIYDASNRATGIPARFSGSGSGTDFTLTISSLEPEDFAVYYCQQRANWPPTFGGGTKVEIK |
| binds | BIIB-12-904 (antibody, V domains shown, IgG) VH: QVQLVESGGGVVQPGRSLRLSCAASGFTFSSYGMHWVRQAPGKGLEWVAVISYDGSNKYYADSVKGRFTISRDNSKNTLYLQMNSLRAEDTAVYYCARGSGRSGYHYWGQGTLVTVSS VL: EIVMTQSPATLSVSPGERATLSCRASQSVSSNLAWYQQKPGQAPRLLIYGASTRATGIPARFSGSGSGTEFTLTISSLQSEDFAVYYCQQAFNWPPTFGGGTKVEIK |
| binds | BIIB-12-912 (antibody, V domains shown, IgG) VH: QVQLVESGGGVVQPGRSLRLSCAASGFTFSSYGMHWVRQAPGKGLEWVAVISYDGSNKYYADSVKGRFTISRDNSKNTLYLQMNSLRAEDTAVYYCAKSGGRYGYDIWGQGTMVTVSS VL: EIVMTQSPATLSVSPGERATLSCRASQSVSSNLAWYQQKPGQAPRLLIYGASTRATGIPARFSGSGSGTEFTLTISSLQSEDFAVYYCQQFHNFPPTFGGGTKVEIK |
| binds | BIIB-12-1299 (antibody, V domains shown, IgG) VH: not shown VL: EIVMTQSPATLSVSPGERATLSCRASQSVSSNLAWYQQKPGQAPRLLIYGASTRATGIPARFSGSGSGTEFTLTISSLQSEDFAVYYCQQLNNFPITFGGGTKVEIK |
| binds | BIIB-12-902 (antibody, V domains shown, IgG) VH: QVQLVQSGAEVKKPGASVKVSCKASGYTFTSYYMHWVRQAPGQGLEWMGIINPGGGSTSYAQKFQGRVTMTRDTSTSTVYMELSSLRSEDTAVYYCARGGPRRAYSWYFDYWGQGTLVTVSS VL: not shown |
